Source: article PMC4039371 (Molecular Systems Biology, 2013)

Target: T1, GST-Cdc14 (S. cerevisiae, UniProt Q00684 1-551)
T1 sequence (looked up): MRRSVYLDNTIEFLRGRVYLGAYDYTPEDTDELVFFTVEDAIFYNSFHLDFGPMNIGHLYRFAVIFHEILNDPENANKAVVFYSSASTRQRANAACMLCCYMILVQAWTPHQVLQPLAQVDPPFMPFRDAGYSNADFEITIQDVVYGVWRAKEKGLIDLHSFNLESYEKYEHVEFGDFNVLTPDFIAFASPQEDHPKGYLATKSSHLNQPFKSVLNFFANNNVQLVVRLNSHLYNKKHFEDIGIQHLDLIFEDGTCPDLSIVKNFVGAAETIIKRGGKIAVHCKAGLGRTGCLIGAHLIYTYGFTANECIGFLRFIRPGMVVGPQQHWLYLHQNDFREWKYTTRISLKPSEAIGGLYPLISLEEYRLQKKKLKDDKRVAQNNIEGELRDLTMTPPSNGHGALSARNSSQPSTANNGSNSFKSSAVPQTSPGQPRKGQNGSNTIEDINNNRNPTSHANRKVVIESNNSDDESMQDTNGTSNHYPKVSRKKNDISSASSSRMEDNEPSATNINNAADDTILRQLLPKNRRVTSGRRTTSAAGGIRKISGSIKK
Experiment: pull-down

binding result: binds
B1: recombinant Ubc9 protein (enzyme, S. cerevisiae, UniProt P50623 1-157, looked up)
chain: MSSLCLQRLQEERKKWRKDHPFGFYAKPVKKADGSMDLQKWEAGIPGKEGTNWAGGVYPITVEYPNEYPSKPPKVKFPAGFYHPNVYPSGTICLSILNEDQDWRPAITLKQIVLGVQDLLDSPNPNSPAQEPAWRSFSRNKAEYDKKVLLQAKQYSK
